Source: paper PMC2814526 (Journal of immunology (Baltimore, Md. : 1950), 2009)

B1: c264scTCR/hIL-15RαSu fusion protein (domain or fragment, human, UniProt Q13261 31-95, looked up)
chain: ITCPPPMSVEHADIWVKSYSLYSRERYICNSGFKRKAGTSSLTECVLNKATNVAHWTTPSLKCIR

How the values were obtained:
[1] = target: hIL-15Rβ-mγc on 32Dβ cells (human | mouse (endogenous in 32D)) (UniProt P14784)
[2] = target: hIL-15Rα and hγc on TF-1 cells (human (endogenous in TF-1)) (UniProt Q13261); experiment: flow cytometry on cells
[3] = target: hIL-15Rβ-mγc on 32Dβ cells (human | mouse (endogenous in 32D)) (UniProt P14784); remark: listed apart in the source
[4] = target: mouse IL-15 receptor complex (mIL-15Rα-mIL-15Rβ-mγc) on CTLL-2 cells (mouse) (UniProt Q60819)
mouse IL-15 receptor complex (mIL-15Rα-mIL-15Rβ-mγc) on CTLL-2 cells (mouse), sequence (Q60819 33-263, chain 1 of 3): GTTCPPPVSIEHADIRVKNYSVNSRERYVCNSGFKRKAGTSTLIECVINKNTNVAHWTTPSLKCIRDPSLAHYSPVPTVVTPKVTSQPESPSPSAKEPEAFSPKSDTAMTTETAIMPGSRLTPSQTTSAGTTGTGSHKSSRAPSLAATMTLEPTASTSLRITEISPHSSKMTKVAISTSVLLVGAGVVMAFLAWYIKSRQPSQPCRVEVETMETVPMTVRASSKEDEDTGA
mouse IL-15 receptor complex (mIL-15Rα-mIL-15Rβ-mγc) on CTLL-2 cells (mouse), sequence (P16297 27-539, chain 2 of 3, further chain): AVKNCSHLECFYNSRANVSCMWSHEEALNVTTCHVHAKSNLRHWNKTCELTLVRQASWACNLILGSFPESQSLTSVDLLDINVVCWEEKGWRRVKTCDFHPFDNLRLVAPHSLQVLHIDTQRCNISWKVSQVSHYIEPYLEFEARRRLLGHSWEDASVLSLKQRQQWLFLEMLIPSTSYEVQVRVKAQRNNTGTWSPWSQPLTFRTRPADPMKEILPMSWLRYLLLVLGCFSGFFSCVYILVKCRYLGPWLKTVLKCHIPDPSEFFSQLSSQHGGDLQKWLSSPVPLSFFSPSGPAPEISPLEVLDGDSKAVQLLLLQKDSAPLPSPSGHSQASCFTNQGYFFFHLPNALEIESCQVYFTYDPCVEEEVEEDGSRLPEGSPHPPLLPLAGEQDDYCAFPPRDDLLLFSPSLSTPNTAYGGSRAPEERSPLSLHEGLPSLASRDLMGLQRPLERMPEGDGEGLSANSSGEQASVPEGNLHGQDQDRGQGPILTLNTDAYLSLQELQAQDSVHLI
mouse IL-15 receptor complex (mIL-15Rα-mIL-15Rβ-mγc) on CTLL-2 cells (mouse), sequence (P34902 23-369, chain 3 of 3, further chain): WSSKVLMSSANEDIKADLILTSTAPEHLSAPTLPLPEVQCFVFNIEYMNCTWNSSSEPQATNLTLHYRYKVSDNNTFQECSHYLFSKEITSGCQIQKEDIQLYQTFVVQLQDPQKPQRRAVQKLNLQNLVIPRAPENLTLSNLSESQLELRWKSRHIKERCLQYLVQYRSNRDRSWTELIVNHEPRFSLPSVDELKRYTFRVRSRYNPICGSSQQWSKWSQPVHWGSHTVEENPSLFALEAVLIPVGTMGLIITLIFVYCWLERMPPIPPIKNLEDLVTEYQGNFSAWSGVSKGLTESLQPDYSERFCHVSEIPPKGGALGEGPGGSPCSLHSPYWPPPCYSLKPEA

[5] = target: hIL-15Rβ-mγc on 32Dβ cells (human | mouse (endogenous in 32D)) (UniProt P14784); remark: listed apart in the source
[6] = target: hIL-15Rα-hIL-15Rβ-hγc complex on TF-1β cells (human (endogenous in TF-1) | human) (UniProt Q13261)
[7] = target: c264scTCR/hIL-15 fusion protein (human, UniProt P40933 49-162); experiment: ELISA
recombinant human IL-15 = recombinant human IL-15 (human, UniProt P40933 49-162); experiment: ELISA

hIL-15Rβ-mγc on 32Dβ cells (human | mouse (endogenous in 32D)), sequence (P14784 27-551, chain 1 of 2): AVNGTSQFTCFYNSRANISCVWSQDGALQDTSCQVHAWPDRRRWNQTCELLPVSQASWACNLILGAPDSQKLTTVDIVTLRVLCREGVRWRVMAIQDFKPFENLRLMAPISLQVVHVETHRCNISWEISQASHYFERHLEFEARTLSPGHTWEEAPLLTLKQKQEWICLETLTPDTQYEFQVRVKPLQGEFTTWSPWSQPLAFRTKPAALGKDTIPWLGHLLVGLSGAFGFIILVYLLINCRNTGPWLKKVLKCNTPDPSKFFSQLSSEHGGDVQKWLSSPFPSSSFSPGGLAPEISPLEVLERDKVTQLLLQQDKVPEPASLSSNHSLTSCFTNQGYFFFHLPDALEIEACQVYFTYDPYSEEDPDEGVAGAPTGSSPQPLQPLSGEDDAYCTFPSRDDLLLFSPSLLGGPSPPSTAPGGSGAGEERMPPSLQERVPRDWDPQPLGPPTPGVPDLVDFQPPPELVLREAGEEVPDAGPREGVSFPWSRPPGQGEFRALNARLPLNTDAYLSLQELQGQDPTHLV
hIL-15Rβ-mγc on 32Dβ cells (human | mouse (endogenous in 32D)), sequence (P34902 23-369, chain 2 of 2, further chain): as the sequence (P34902 23-369, chain 3 of 3, further chain) above

| EC50 of the decrease in apoptosis of 32Dβ cells (Annexin V, 48 h) [1] [pM] | IC50 [2] [nM] | EC50 on 32Dβ cell proliferation, rhIL-15N72D alone [3] [pM] | EC50 of CTLL-2 cell proliferation (WST-1, 48 h) [4] [pM] | EC50 of 32Dβ cell proliferation (WST-1, 48 h) [5] [pM] | EC50 of TF-1β cell proliferation (WST-1, 48 h) [6] [pM] | binding result [7] | binding result (recombinant human IL-15) | Molecule |
| --- | --- | --- | --- | --- | --- | --- | --- | --- |
| 7.8 | 0.0175 | 16.2 | 9.2 | 39.9 | 4.8 |  |  | recombinant human IL-15 N72D mutein (ligand) |
|  |  |  | 18.4 | 79 |  |  |  | c264scTCR/hIL-15N72D fusion protein (ligand) |
|  |  |  |  |  |  | binds | binds | B1 |
